The values below come from EP0574621A1.

Like-named read-outs stand apart in the source and are kept apart here.

Test [1] addresses von Willebrand factor (UniProt P04275). Nature of the test: cell-based or functional assay.
Test [2] shares this target.
The target is the same in test [3]. Nature of the test: competitive inhibition of 125I-two-chain botrocetin binding to vWF in solution by unlabeled two-chain botrocetin; vWF captured on 2-2-9 IgG coated wells.
Test [4] shares this target. Nature of the test: ratio of IC50 values from the competitive radiolabelled botrocetin binding assay.

On to one-chain botrocetin, for which, in the test with von Willebrand factor [1], the Half maximal binding capacity (BM50) stood at 5.5 µg/mL, the concentration giving maximal vWF binding to glycoprotein Ib was 17 µg/mL and the minimum concentration necessary to induce vWF binding to glycoprotein Ib worked out at 1 µg/mL. Also, the IC50 (usually the point on the concentration scale where inhibition reaches its midpoint) in the test with von Willebrand factor [2] is 55 µg/mL.
Consider two-chain botrocetin, for which the IC50 with von Willebrand factor [3] came out at 1.7 µg/mL. In the test with von Willebrand factor [1], this substance displayed a Half maximal binding capacity (BM50) of 0.16 µg/mL and a fold greater activity (BM50) than one-chain botrocetin of 34 fold. Also, the fold higher affinity than one-chain botrocetin with von Willebrand factor [4] is 32 fold.
